± gives the standard deviation of the averaged measurements.

The record followed here is the supplement of paper PMC10724198.

The subject of data set [1] is Saccharomyces cerevisiae. In words: protein stability index of tFT-peptide fusion (C-terminal peptide) (PSI (0-1 scale)); higher = more stable (slower turnover). The protocol: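 MPS profiling in S. cerevisiae of the tFT-X12 degron library: putative degron peptides plus stable controls, 12 aa, fused to the C-terminus of a sfGFP-mCherry timer. Cells are FACS-sorted into 8 mCherry/sfGFP bins and deep-sequenced. PSI runs from 0 (unstable) to 1 (stable). Backgrounds are wild type, das1Δ and doa10Δ at 30 °C, and wild type, das1Δ, cdc34-1 and cdc53-1 at 37 °C; 2-3 technical replicates each.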

The test system of data set [2] is Saccharomyces cerevisiae. The data set is described as above. The settings on record: genetic background: wild type; temperature: 30 C.
The mark [3] stands for this setting: genetic background: cdc34-1, temperature: 37 C.
The mark [4] stands for this setting: genetic background: cdc53-1, temperature: 37 C.
Setting [5] is: genetic background: das1 deletion, temperature: 30 C.
[6] abbreviates: genetic background: das1 deletion, temperature: 37 C.
[7] abbreviates: genetic background: doa10 deletion, temperature: 30 C.
Where [8] appears, read: genetic background: wild type, temperature: 30 C.
Setting [9] is: genetic background: wild type, temperature: 37 C.
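Also: PSI is a weighted mean of sequencing reads over stability bins, variants kept only with over 10 reads, mCherry proximal and sfGFP distal, peptide attached via GGGS linker.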

In the case of ARRGHNCAAVFL, the protein stability index in the data set with Saccharomyces cerevisiae [1] (setting [3]) was 0.6953 ± 0.0068; in the data set on Saccharomyces cerevisiae [1] (setting [4]), 0.7426 ± 0.0071; in the data set on Saccharomyces cerevisiae [1] (setting [5]), 0.666 ± 0.026; in the data set with Saccharomyces cerevisiae [1] (setting [6]) it was 0.7447 ± 0.0047; in the data set on Saccharomyces cerevisiae [1] (setting [7]) it was 0.65 ± 0.022; in the data set on Saccharomyces cerevisiae [1] (setting [8]), 0.663 ± 0.024. For the same sequence, the protein stability index in the data set with Saccharomyces cerevisiae [1] (setting [9]) amounted to 0.718 ± 0.0074; with Saccharomyces cerevisiae [2] it was 0.643 ± 0.3.

With ARTWVVLLICGH, the protein stability index in the data set on Saccharomyces cerevisiae [1] (setting [3]) is 0.4159 ± 0.0012; with Saccharomyces cerevisiae [1] (setting [4]), 0.479 ± 0.025; in the data set with Saccharomyces cerevisiae [1] (setting [5]), 0.355 ± 0.032; with Saccharomyces cerevisiae [1] (setting [6]), 0.563 ± 0.04; with Saccharomyces cerevisiae [1] (setting [7]), 0.28 ± 0.0056; with Saccharomyces cerevisiae [1] (setting [8]) it was 0.328 ± 0.019. Further, the protein stability index in the data set on Saccharomyces cerevisiae [1] (setting [9]) was 0.531 ± 0.045; in the data set with Saccharomyces cerevisiae [2] it was 0.423 ± 0.033.

As to ASWRYMFPVTLG, the protein stability index in the data set on Saccharomyces cerevisiae [1] (setting [3]) was found to be 0.576 ± 0.031; in the data set with Saccharomyces cerevisiae [1] (setting [4]), 0.574 ± 0.045; in the data set with Saccharomyces cerevisiae [1] (setting [5]), 0.555 ± 0.039; in the data set on Saccharomyces cerevisiae [1] (setting [6]), 0.685 ± 0.031; in the data set on Saccharomyces cerevisiae [1] (setting [7]), 0.383 ± 0.021; in the data set on Saccharomyces cerevisiae [1] (setting [8]), 0.306 ± 0.039. The protein stability index in the data set with Saccharomyces cerevisiae [1] (setting [9]) was determined as 0.4618 ± 0.0041; in the data set with Saccharomyces cerevisiae [2], 0.367 ± 0.032.

For AVCVVVMAVFVG, the protein stability index amounted to 0.339 ± 0.056 in the data set on Saccharomyces cerevisiae [1] (setting [3]); 0.4098 ± 0.0026 in the data set on Saccharomyces cerevisiae [1] (setting [4]); 0.297 ± 0.028 in the data set with Saccharomyces cerevisiae [1] (setting [5]); 0.417 ± 0.012 with Saccharomyces cerevisiae [1] (setting [6]); 0.293 ± 0.022 with Saccharomyces cerevisiae [1] (setting [7]); 0.3 ± 0.012 with Saccharomyces cerevisiae [1] (setting [8]). In addition, the protein stability index in the data set with Saccharomyces cerevisiae [1] (setting [9]) was found to be 0.397 ± 0.021; in the data set on Saccharomyces cerevisiae [2], 0.3646 ± 0.0028.

With CASVCCFFAWIV, the protein stability index was 0.571 ± 0.028 in the data set on Saccharomyces cerevisiae [1] (setting [3]); 0.623 ± 0.011 in the data set on Saccharomyces cerevisiae [1] (setting [4]); 0.46 ± 0.046 with Saccharomyces cerevisiae [1] (setting [5]); 0.5941 ± 0.0019 with Saccharomyces cerevisiae [1] (setting [6]); 0.299 ± 0.017 in the data set on Saccharomyces cerevisiae [1] (setting [7]); 0.323 ± 0.0068 with Saccharomyces cerevisiae [1] (setting [8]). Besides, the results for the protein stability index in the data set with Saccharomyces cerevisiae [1] (setting [9]) and in the data set with Saccharomyces cerevisiae [2] were 0.4749 ± 0.00052 and 0.416 ± 0.06, respectively.

With CCVFFLLCLSLF, the protein stability index is 0.419 ± 0.016 in the data set with Saccharomyces cerevisiae [1] (setting [3]); 0.44 ± 0.024 in the data set on Saccharomyces cerevisiae [1] (setting [4]); 0.341 ± 0.01 in the data set with Saccharomyces cerevisiae [1] (setting [5]); 0.469 ± 0.023 in the data set with Saccharomyces cerevisiae [1] (setting [6]); 0.353 ± 0.012 in the data set with Saccharomyces cerevisiae [1] (setting [7]); 0.313 ± 0.0084 with Saccharomyces cerevisiae [1] (setting [8]). The figures for the protein stability index in the data set on Saccharomyces cerevisiae [1] (setting [9]) and in the data set with Saccharomyces cerevisiae [2] were 0.4223 ± 0.0038 and 0.354 ± 0.044, respectively.

As for CFFGFRAGLFLG, the protein stability index in the data set with Saccharomyces cerevisiae [1] (setting [3]) turned out to be 0.507 ± 0.0082; in the data set with Saccharomyces cerevisiae [1] (setting [4]), 0.7205 ± 0.0047; with Saccharomyces cerevisiae [1] (setting [5]) it was 0.593 ± 0.018; with Saccharomyces cerevisiae [1] (setting [6]), 0.754 ± 0.052; in the data set with Saccharomyces cerevisiae [1] (setting [7]) it was 0.176 ± 0.002; in the data set on Saccharomyces cerevisiae [1] (setting [8]), 0.155 ± 0.0076. The protein stability index in the data set on Saccharomyces cerevisiae [1] (setting [9]) was 0.247 ± 0.072; with Saccharomyces cerevisiae [2] it was 0.214 ± 0.016.

As for CFFVSLFFYIDC, the protein stability index in the data set on Saccharomyces cerevisiae [1] (setting [3]) came out at 0.207 ± 0.055; in the data set on Saccharomyces cerevisiae [1] (setting [4]) it was 0.296 ± 0.0032; with Saccharomyces cerevisiae [1] (setting [5]) it was 0.215 ± 0.021; with Saccharomyces cerevisiae [1] (setting [6]), 0.392 ± 0.0061; in the data set on Saccharomyces cerevisiae [1] (setting [7]) it was 0.191 ± 0.014; in the data set with Saccharomyces cerevisiae [1] (setting [8]), 0.203 ± 0.042. The figures for the protein stability index in the data set with Saccharomyces cerevisiae [1] (setting [9]) and with Saccharomyces cerevisiae [2] were 0.35 ± 0.0022 and 0.323 ± 0.011, respectively.

Take CFGSALLKCWLC: the protein stability index with Saccharomyces cerevisiae [1] (setting [3]) amounted to 0.602 ± 0.037; with Saccharomyces cerevisiae [1] (setting [4]), 0.726 ± 0.018; in the data set with Saccharomyces cerevisiae [1] (setting [5]), 0.665 ± 0.013; with Saccharomyces cerevisiae [1] (setting [6]) it was 0.7708 ± 0.0038; in the data set with Saccharomyces cerevisiae [1] (setting [7]), 0.299 ± 0.002; in the data set with Saccharomyces cerevisiae [1] (setting [8]), 0.303 ± 0.032. Further, the figures for the protein stability index with Saccharomyces cerevisiae [1] (setting [9]) and in the data set on Saccharomyces cerevisiae [2] were 0.44 ± 0.0044 and 0.406 ± 0.035, respectively.

For CFLSWSLRFFIL, the protein stability index with Saccharomyces cerevisiae [1] (setting [3]) is 0.387 ± 0.094; in the data set with Saccharomyces cerevisiae [1] (setting [4]) it was 0.507 ± 0.022; in the data set with Saccharomyces cerevisiae [1] (setting [5]), 0.482 ± 0.031; in the data set with Saccharomyces cerevisiae [1] (setting [6]), 0.554 ± 0.034; in the data set with Saccharomyces cerevisiae [1] (setting [7]), 0.132 ± 0.0019; in the data set on Saccharomyces cerevisiae [1] (setting [8]), 0.118 ± 0.0054. The protein stability index in the data set on Saccharomyces cerevisiae [1] (setting [9]) worked out at 0.139 ± 0.013; in the data set on Saccharomyces cerevisiae [2] it was 0.206 ± 0.011.

Turning to CFVRCFVSIRLF, the protein stability index in the data set with Saccharomyces cerevisiae [1] (setting [3]) was determined as 0.109 ± 0.041; in the data set with Saccharomyces cerevisiae [1] (setting [4]), 0.167 ± 0.0043; in the data set on Saccharomyces cerevisiae [1] (setting [5]) it was 0.163 ± 0.019; with Saccharomyces cerevisiae [1] (setting [6]) it was 0.3093 ± 0.0021; in the data set on Saccharomyces cerevisiae [1] (setting [7]), 0.0737 ± 0.012; in the data set with Saccharomyces cerevisiae [1] (setting [8]), 0.0716 ± 0.026. Also, the protein stability index in the data set on Saccharomyces cerevisiae [1] (setting [9]) came to 0.146 ± 0.015; with Saccharomyces cerevisiae [2], 0.133 ± 0.034.

As to CGGLFDVALGVG, the protein stability index in the data set with Saccharomyces cerevisiae [1] (setting [3]) turned out to be 0.457 ± 0.031; in the data set on Saccharomyces cerevisiae [1] (setting [4]), 0.5096 ± 0.0026; with Saccharomyces cerevisiae [1] (setting [5]) it was 0.449 ± 0.01; in the data set on Saccharomyces cerevisiae [1] (setting [6]), 0.522 ± 0.011; with Saccharomyces cerevisiae [1] (setting [7]), 0.477 ± 0.021; in the data set on Saccharomyces cerevisiae [1] (setting [8]) it was 0.468 ± 0.023. The protein stability index was 0.516 ± 0.0067 in the data set with Saccharomyces cerevisiae [1] (setting [9]) and 0.471 ± 0.027 in the data set with Saccharomyces cerevisiae [2].

Consider CGGVQVWRVKVV, for which the protein stability index was found to be 0.657 ± 0.023 in the data set on Saccharomyces cerevisiae [1] (setting [3]); 0.715 ± 0.012 in the data set on Saccharomyces cerevisiae [1] (setting [4]); 0.605 ± 0.011 with Saccharomyces cerevisiae [1] (setting [5]); 0.722 ± 0.0077 with Saccharomyces cerevisiae [1] (setting [6]); 0.18 ± 0.016 with Saccharomyces cerevisiae [1] (setting [7]); 0.221 ± 0.018 in the data set with Saccharomyces cerevisiae [1] (setting [8]). Besides, the figures for the protein stability index in the data set on Saccharomyces cerevisiae [1] (setting [9]) and with Saccharomyces cerevisiae [2] were 0.401 ± 0.0066 and 0.3403 ± 0.002, respectively.

For the sequence CGSFWVNVLCAV, the protein stability index was found to be 0.402 ± 0.01 in the data set with Saccharomyces cerevisiae [1] (setting [3]); 0.422 ± 0.018 in the data set on Saccharomyces cerevisiae [1] (setting [4]); 0.334 ± 0.035 in the data set with Saccharomyces cerevisiae [1] (setting [5]); 0.497 ± 0.01 in the data set on Saccharomyces cerevisiae [1] (setting [6]); 0.2657 ± 0.0011 in the data set on Saccharomyces cerevisiae [1] (setting [7]); 0.299 ± 0.034 in the data set with Saccharomyces cerevisiae [1] (setting [8]). Also, the protein stability index with Saccharomyces cerevisiae [1] (setting [9]) is 0.444 ± 0.0067; in the data set with Saccharomyces cerevisiae [2] it was 0.402 ± 0.013.

As for CILYLSWIIFRA, the protein stability index in the data set with Saccharomyces cerevisiae [1] (setting [3]) was 0.161 ± 0.037; in the data set on Saccharomyces cerevisiae [1] (setting [4]), 0.192 ± 0.011; in the data set on Saccharomyces cerevisiae [1] (setting [5]), 0.198 ± 0.041; in the data set on Saccharomyces cerevisiae [1] (setting [6]) it was 0.343 ± 0.0091; in the data set with Saccharomyces cerevisiae [1] (setting [7]), 0.213 ± 0.034; with Saccharomyces cerevisiae [1] (setting [8]), 0.174 ± 0.028. Also, the protein stability index in the data set on Saccharomyces cerevisiae [1] (setting [9]) amounted to 0.334 ± 0.068; in the data set with Saccharomyces cerevisiae [2], 0.146 ± 0.026.

Regarding CLCLICFLCWFA, the protein stability index came to 0.475 ± 0.037 in the data set with Saccharomyces cerevisiae [1] (setting [3]); 0.546 ± 0.012 in the data set on Saccharomyces cerevisiae [1] (setting [4]); 0.408 ± 0.0097 with Saccharomyces cerevisiae [1] (setting [5]); 0.514 ± 0.0052 in the data set on Saccharomyces cerevisiae [1] (setting [6]); 0.387 ± 0.01 in the data set on Saccharomyces cerevisiae [1] (setting [7]); 0.384 ± 0.038 with Saccharomyces cerevisiae [1] (setting [8]). In the data set on Saccharomyces cerevisiae [1] (setting [9]), this sequence had a protein stability index of 0.4958 ± 0.0039.
